From publication PMC2148128

Assays:
[1] = biological target: Crn1p (coronin1p), full-length recombinant (amino acids 1–651) (S. cerevisiae) (UniProt Q06440); experiment: co-sedimentation
[2] = biological target: taxol-stabilized bovine brain microtubules (tubulin) (bovine) (UniProt Q6B856); experiment: co-sedimentation

Kd [1] [µM]	Kd [2] [µM]	percent of Crn1p bound at 2 μM microtubules [2] [%]	percent of Crn1p bound at 10 μM microtubules [2] [%]	Molecule
2	–	–	–	taxol-stabilized bovine brain microtubules (tubulin) (from UniProt Q6B856 1-445) (complex)
–	15 to 20	20	40	Crn1p (coronin1p), full-length recombinant (amino acids 1–651) (natural protein) MSGKFVRASKYRHVFGQAAKKELQYEKLKVTNNAWDSNLLKTNGKFIAVNWNASGGGAFAVIPIEEVGKAPDQVPLFRGHTAQVLDTDFDPFNDHRIASGSDDSKIGIWDIPENYKFHDHVDEDGEPIDIKPVKFLTGHARKVGHVLYHPVAENVLASSSGDYTVKLWNVETGKDMITLKHPDMVTSMSFSYDGNYLATVARDKKLRVWNIREEKIVSEGPAHTGAKNQRVVWLGNSDRLATTGFSKLSDRQIGIWDAFNIEKGDLGGFYTVDQSSGILMPFYDEGNKILYLVGKGDGNIRYYEFQNDELFELSEFQSTEAQRGFAVAPKRMVNVKENEVLKGFKTVVDQRIEPVSFFVPRRSEEFQEDIYPDAPSNKPALTAEEWFSGKSVEGPILVSMRSIYDGSAPSFHEAKRPQQPTTQETALEEKKEQPKVEKPISESEKEVKQEAPKSPSPLKSASSSSTINHVLKEDNSINKLLKKSSDIDQVNNAEDPSRDTSGWEEADDEPAPIKIETPVTPTETKKDRTPKVEPSKELKPEPVSIATDRKQEQSLPQEEKSSEKTKSPEQEKSATPPSSITAAKTAITASSKEEPSAARTSPKSLGLKKSVEKLSTLVLQLEDVVDKLTKANLDKDERLLKLEQKIGELSK
